Laboratory results published in US20250127877A1 (University of Washington, published 2025).

Target: TH-A/New Caledonia/20/1999_2GCN_dn5b (203L/210D/212V/216I) (influenza A virus A/New …)
Experiment: in vitro nanoparticle assembly, purified nanoparticles seen by cryo-EM

B1: I53_dn5A.1 (other)
chain: MGKYDGSKLRIGILHARGNAEIILALVLGALKRLQEFGVKRENIIIETVPGSFELPYGSKLFVEKQKRLGKPLDAIIPIGVLIRGSTPHFDYIADSTTHQLMKLNFELGIPVIFGVITADTDEQAEARAGLIEGKMHNHGEDWGAAAVEMATKFN
**Q.** Does B1 bind?
**A.** Result: binds
